Substrate in series [1]: C[C@H](CCC(=O)O)[C@H]1CC[C@H]2[C@@H]3C(=O)C[C@@H]4CC(=O)CC[C@]4(C)[C@H]3CC(=O)[C@]12C
The series can be described thus: cells, lysate or membranes named. As to conditions: pH 8.0, 25.0 °C.

Substrate in series [2]: NC(=O)C1=CN([C@@H]2O[C@H](COP(=O)(O)OP(=O)(O)OC[C@H]3O[C@@H](n4cnc5c(N)ncnc54)[C@H](O)[C@@H]3O)[C@@H](O)[C@H]2O)C=CC1
The series can be described thus: purified protein, by the assay type. The following applies: other: Table 15, substrate NADH, apparent values, pH 8.0.

Substrate in series [3]: C[C@H](CCC(=O)O)[C@H]1CC[C@H]2[C@@H]3C(=O)C[C@@H]4CC(=O)CC[C@]4(C)[C@H]3CC(=O)[C@]12C
The series can be described thus: purified protein, by the assay type. As to conditions: other: Table 14, substrate DHCA, tag N, apparent values, pH 8.0.

The test system of another series is 3α-HSDH; substrate DHCA. Type of series: biochemical, Comamonas testosteroni.
Setting [4] is: other: crude extract (without His tag), DHCA, read from the diagram.

The results in this text go back to patent US10487348B2, “3-alpha-hydroxysteroid dehydrogenase mutants and process for the preparation of ursodeoxycholic acid” (Pharmazell GmbH, priority 2014, dated 2019).

Marks after values point to notes of the source that are not given here.

B1: Comamonas testosteroni 3α-HSDH, wild type, C-terminal 9×His tag (SEQ ID NO: 51) (Comamonas testosteroni) (protein)
chain: MSIIVISGCATGIGAATRKVLEAAGHQIVGIDIRDAEVIADLSTAEGRKQAIADVLAKCSKGMDGLVLCAGLGPQTKVLGNVVSVNYFGATELMDAFLPALKKGHQPAAVVISSVASAHLAFDKNPLALALEAGEEAKARAIVEHAGEQGGNLAYAGSKNALTVAVRKRAAAWGEAGVRLNTIAPGATETPLLQAGLQDPRYGESIAKFVPPMGRRAEPSEMASVIAFLMSPAASYVHGAQIVIDGGIDAVMRPTQFLEHHHHHHHHH
In the case of B1, the Km – broadly, the substrate concentration at which the rate is half of its maximum – in series [1] (other: His tag length 9, DHCA 10 μM-10 mM, NADH 0.2 mM, purified) amounted to 70.5 ± 14.2 µM.

B2: Comamonas testosteroni 3α-HSDH, wild type, C-terminal 3×His tag (Comamonas testosteroni) (protein)
chain: MSIIVISGCATGIGAATRKVLEAAGHQIVGIDIRDAEVIADLSTAEGRKQAIADVLAKCSKGMDGLVLCAGLGPQTKVLGNVVSVNYFGATELMDAFLPALKKGHQPAAVVISSVASAHLAFDKNPLALALEAGEEAKARAIVEHAGEQGGNLAYAGSKNALTVAVRKRAAAWGEAGVRLNTIAPGATETPLLQAGLQDPRYGESIAKFVPPMGRRAEPSEMASVIAFLMSPAASYVHGAQIVIDGGIDAVMRPTQFLEHHH
For the molecule B2, the Km in series [1] (other: His tag length 3, DHCA 10 μM-10 mM, NADH 0.2 mM, purified) came to 997.9 ± 483 µM.

B3: Comamonas testosteroni 3α-HSDH, wild type, without His tag, SEQ ID NO:4 (Comamonas testosteroni) (protein)
chain: MSIIVISGCATGIGAATRKVLEAAGHQIVGIDIRDAEVIADLSTAEGRKQAIADVLAKCSKGMDGLVLCAGLGPQTKVLGNVVSVNYFGATELMDAFLPALKKGHQPAAVVISSVASAHLAFDKNPLALALEAGEEAKARAIVEHAGEQGGNLAYAGSKNALTVAVRKRAAAWGEAGVRLNTIAPGATETPLLQAGLQDPRYGESIAKFVPPMGRRAEPSEMASVIAFLMSPAASYVHGAQIVIDGGIDAVMRPTQF
B3: in series [1] (setting [4]), the Km is listed as 200* μM and the Vmax (as a rule, the top rate of the reaction or transport when substrate is in excess) is 25 µmol/min/mg. Also, in series [2] (without tag, 25.0 °C), the Km worked out at 46.9 ± 5.9 µM; the Vmax came to 186 µmol/min/mg; the kcat – broadly, the maximal rate divided by the concentration of active sites – worked out at 88.5 s⁻¹; the kcat/Km (as a rule, the second-order rate constant that governs catalysis at low substrate concentration) was 1.88e+06 M⁻¹ s⁻¹.

B4: Comamonas testosteroni 3α-HSDH mutant [T188S], N-terminal hexahistidine tag (Comamonas testosteroni; T188S) (protein)
chain: MSIIVISGCATGIGAATRKVLEAAGHQIVGIDIRDAEVIADLSTAEGRKQAIADVLAKCSKGMDGLVLCAGLGPQTKVLGNVVSVNYFGATELMDAFLPALKKGHQPAAVVISSVASAHLAFDKNPLALALEAGEEAKARAIVEHAGEQGGNLAYAGSKNALTVAVRKRAAAWGEAGVRLNTIAPGASETPLLQAGLQDPRYGESIAKFVPPMGRRAEPSEMASVIAFLMSPAASYVHGAQIVIDGGIDAVMRPTQF
Consider B4, for which the Km in series [3] is 312.6 ± 112 µM. Moreover, in series [2] (tag N), the Km was 87.6 ± 29.7 µM, the Vmax is 147 µmol/min/mg, the kcat stood at 96.1 s⁻¹ and the kcat/Km was 1.1e+06 M⁻¹ s⁻¹.

B5: Comamonas testosteroni 3α-HSDH dual mutant [P185A/T188A], N-terminal hexahistidine tag (Comamonas testosteroni; P185A/T188A) (protein)
chain: MSIIVISGCATGIGAATRKVLEAAGHQIVGIDIRDAEVIADLSTAEGRKQAIADVLAKCSKGMDGLVLCAGLGPQTKVLGNVVSVNYFGATELMDAFLPALKKGHQPAAVVISSVASAHLAFDKNPLALALEAGEEAKARAIVEHAGEQGGNLAYAGSKNALTVAVRKRAAAWGEAGVRLNTIAAGAAETPLLQAGLQDPRYGESIAKFVPPMGRRAEPSEMASVIAFLMSPAASYVHGAQIVIDGGIDAVMRPTQF
With B5, the Michaelis constant (Km) in series [3] is 66.9 ± 15 µM. In series [2] (tag N), the Km worked out at 333.9 ± 137.5 µM, the Vmax worked out at 85.9 µmol/min/mg, the catalytic constant (kcat) was 17.6 s⁻¹ and the kcat/Km turned out to be 52600 M⁻¹ s⁻¹.

B6: Comamonas testosteroni 3α-HSDH mutant [P185A], N-terminal hexahistidine tag (Comamonas testosteroni; P185A) (protein)
chain: MSIIVISGCATGIGAATRKVLEAAGHQIVGIDIRDAEVIADLSTAEGRKQAIADVLAKCSKGMDGLVLCAGLGPQTKVLGNVVSVNYFGATELMDAFLPALKKGHQPAAVVISSVASAHLAFDKNPLALALEAGEEAKARAIVEHAGEQGGNLAYAGSKNALTVAVRKRAAAWGEAGVRLNTIAAGATETPLLQAGLQDPRYGESIAKFVPPMGRRAEPSEMASVIAFLMSPAASYVHGAQIVIDGGIDAVMRPTQF
B6: in series [3], the Km amounted to 71.0 ± 11 µM.

B7: Comamonas testosteroni 3α-HSDH mutant [L68A], N-terminal hexahistidine tag (Comamonas testosteroni; L68A) (protein)
chain: MSIIVISGCATGIGAATRKVLEAAGHQIVGIDIRDAEVIADLSTAEGRKQAIADVLAKCSKGMDGLVACAGLGPQTKVLGNVVSVNYFGATELMDAFLPALKKGHQPAAVVISSVASAHLAFDKNPLALALEAGEEAKARAIVEHAGEQGGNLAYAGSKNALTVAVRKRAAAWGEAGVRLNTIAPGATETPLLQAGLQDPRYGESIAKFVPPMGRRAEPSEMASVIAFLMSPAASYVHGAQIVIDGGIDAVMRPTQF
On to B7, for which, in series [3] (NADH 0.2 mM), the Km was 75.4 ± 22.6 µM. Moreover, in series [2] (tag N), the Km was determined as 17.1 ± 3.7 µM, the Vmax came to 138 µmol/min/mg, the kcat was found to be 110 s⁻¹ and the kcat/Km is 6.46e+06 M⁻¹ s⁻¹.

B8: Comamonas testosteroni 3α-HSDH mutant [T188A], N-terminal hexahistidine tag (Comamonas testosteroni; T188A) (protein)
chain: MSIIVISGCATGIGAATRKVLEAAGHQIVGIDIRDAEVIADLSTAEGRKQAIADVLAKCSKGMDGLVLCAGLGPQTKVLGNVVSVNYFGATELMDAFLPALKKGHQPAAVVISSVASAHLAFDKNPLALALEAGEEAKARAIVEHAGEQGGNLAYAGSKNALTVAVRKRAAAWGEAGVRLNTIAPGAAETPLLQAGLQDPRYGESIAKFVPPMGRRAEPSEMASVIAFLMSPAASYVHGAQIVIDGGIDAVMRPTQF
With B8, the Km in series [3] is 94.5 ± 11 µM. In series [2] (tag N), the Km turned out to be 111.5 ± 18.2 µM, the Vmax worked out at 237 µmol/min/mg, the kcat was 130 s⁻¹ and the kcat/Km was found to be 1.17e+06 M⁻¹ s⁻¹.

B9: Comamonas testosteroni 3α-HSDH dual mutant [L68A/T188S], N-terminal hexahistidine tag (Comamonas testosteroni; L68A/T188S) (protein)
chain: MSIIVISGCATGIGAATRKVLEAAGHQIVGIDIRDAEVIADLSTAEGRKQAIADVLAKCSKGMDGLVACAGLGPQTKVLGNVVSVNYFGATELMDAFLPALKKGHQPAAVVISSVASAHLAFDKNPLALALEAGEEAKARAIVEHAGEQGGNLAYAGSKNALTVAVRKRAAAWGEAGVRLNTIAPGASETPLLQAGLQDPRYGESIAKFVPPMGRRAEPSEMASVIAFLMSPAASYVHGAQIVIDGGIDAVMRPTQF
With B9, the Km in series [3] came out at 169.6 ± 22.6 µM. Also, in series [2] (tag N), the Km is 47.4 ± 2.6 µM, the Vmax was 188 µmol/min/mg, the kcat turned out to be 91.8 s⁻¹ and the kcat/Km turned out to be 1.94e+06 M⁻¹ s⁻¹.

B10: Comamonas testosteroni 3α-HSDH dual mutant [L68A/T188A], N-terminal hexahistidine tag (Comamonas testosteroni; L68A/T188A) (protein)
chain: MSIIVISGCATGIGAATRKVLEAAGHQIVGIDIRDAEVIADLSTAEGRKQAIADVLAKCSKGMDGLVACAGLGPQTKVLGNVVSVNYFGATELMDAFLPALKKGHQPAAVVISSVASAHLAFDKNPLALALEAGEEAKARAIVEHAGEQGGNLAYAGSKNALTVAVRKRAAAWGEAGVRLNTIAPGAAETPLLQAGLQDPRYGESIAKFVPPMGRRAEPSEMASVIAFLMSPAASYVHGAQIVIDGGIDAVMRPTQF
Turning to B10, in series [3], the Km turned out to be 164.4 ± 20.4 µM. Besides, in series [2] (tag N), the Km amounted to 67.5 ± 4.7 µM, the maximal velocity (Vmax) was determined as 229 µmol/min/mg, the kcat worked out at 111 s⁻¹ and the kcat/Km is 1.65e+06 M⁻¹ s⁻¹.

B11: P185A/T188A N: 3α-HSDH dual mutant P185A/T188A with N-terminal hexahistidine tag (protein, UniProt P80702 2-257, looked up, variant P185A T188A)
3-alpha-hydroxysteroid …: SIIVISGCATGIGAATRKVLEAAGHQIVGIDIRDAEVIADLSTAEGRKQAIADVLAKCSKGMDGLVLCAGLGPQTKVLGNVVSVNYFGATELMDAFLPALKKGHQPAAVVISSVASAHLAFDKNPLALALEAGEEAKARAIVEHAGEQGGNLAYAGSKNALTVAVRKRAAAWGEAGVRLNTIAAGAAETPLLQAGLQDPRYGESIAKFVPPMGRRAEPSEMASVIAFLMSPAASYVHGAQIVIDGGIDAVMRPTQF
modifications: N-terminal His6 tag
notes: 3α-HSDH dual mutant P185A/T188A with N-terminal hexahistidine tag
As for B11, the “DHCA substrate concentration at maximum specific activity” value in the series with 3α-HSDH; substrate DHCA (purified enzyme variant) is 0.5 mM. In addition, the substrate excess inhibition entry with 3α-HSDH; substrate DHCA (purified enzyme variant, substrate DHCA) is on record as “substrate excess inhibition was observed”. Besides, the “activities compared with the corresponding single mutants” value with 3α-HSDH; substrate DHCA (substrate DHCA) is “markedly lower”.
